Biological target: α2β1 integrin on human cortical neurons (human) (UniProt P17301)
Experiment: cell-based or functional assay

## Human perlecan Domain V, recombinant, C-terminal 6xHis tag (from UniProt P98160 3687-4391) (ligand)
  EC50 of domain V inhibition of Aβ toxicity in human cortical neurons, domain V alone (FIG. 4): 123 nM
  EC50 of domain V inhibition of Aβ toxicity in human cortical neurons, in the presence of a mouse IgG control or the α2 antibodies 1950 and 1998: 98 nM
  EC50 of domain V inhibition of Aβ toxicity in human cortical neurons, in the presence of the αV integrin antibody: 47 nM
  EC50 of domain V inhibition of Aβ toxicity in human cortical neurons, in the presence of the β1 integrin antibody: < 38 nM
  average EC50 of domain V inhibition of Aβ40 toxicity in human cortical neurons (alamarBlue viability, n=5 experiments): 164 nM

## LG3 C-terminal domain of human perlecan Domain V (amino acids 4188-4391), C-terminal 6xHis tag (from UniProt P98160 4188-4391) (ligand)
  EC50 of LG3 inhibition of Aβ40 toxicity in human cortical neurons (alamarBlue viability): 50 nM

Source: patent US20130036481A1
